Molecular target: FGFR2 over-expressed on CHO cells (CHO-FGFR2) and on 32D cells (32D-FGFR2) (UniProt P21803)
Experiment: competition of unlabeled protein with 125I-FGF4 (Gly79-Leu206) for CHO-FGFR2 cells, +heparin

IC50 mutant/IC50 wild-type (ratio (IC50 mutant/IC50 wild-type)): > 1000
Substance: FGF4 (Gly79-Leu206) N89A/K198A/K183A/K188A (from UniProt P08620 79-206) (ligand)
